Measurements from patent US20060171935A1, “Protecting cell therapy for neurological disorders including Parkinson's disease” (priority 2005, published 2006).

T1: citrate synthase (CS) (Sus scrofa, UniProt P00889)
T1 construct: purchased Sigma
T1 sequence (P00889 28-464): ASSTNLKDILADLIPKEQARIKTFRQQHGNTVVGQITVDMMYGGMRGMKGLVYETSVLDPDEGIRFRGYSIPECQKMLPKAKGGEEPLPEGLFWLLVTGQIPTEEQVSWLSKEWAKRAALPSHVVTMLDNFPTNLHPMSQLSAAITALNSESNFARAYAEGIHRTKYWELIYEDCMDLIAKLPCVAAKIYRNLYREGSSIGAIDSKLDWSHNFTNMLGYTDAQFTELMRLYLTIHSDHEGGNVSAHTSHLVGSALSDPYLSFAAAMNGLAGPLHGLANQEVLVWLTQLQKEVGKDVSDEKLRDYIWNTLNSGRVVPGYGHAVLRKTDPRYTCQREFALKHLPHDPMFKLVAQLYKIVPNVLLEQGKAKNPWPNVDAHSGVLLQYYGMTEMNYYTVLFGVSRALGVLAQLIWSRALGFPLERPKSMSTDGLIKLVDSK


Experiments:
[1] = system: DJ-1 deficient dopamine neurons; assay: 6-OHDA sensitivity of ES-derived dopamine neurons, 3H-dopamine uptake; assay type: cell-based, murine; details: 9 DIV, 72 h exposure
Source text: (A) The SDIA coculture method. DJ-1 knockout or control heterozygous ES cells are cocultured with mouse stromal cells (MS5) in the absence of serum and leukemia inhibitory factor for 18 DIV. (B) DN production was quantified at 18 DIV by 3H-dopamine uptake assay. DJ-1-deficient ES cell cultures were defective relative to heterozygous control cultures. (C-D) Neuron production was quantified by immunohistochemical analysis as a percent of TuJ1-positive colonies that express TH (C) or GABA (D). Quantification of TH and GABA immunostaining was performed on all colonies in each of three independent wells. Colonies were scored as positive if any immunostained cells were present. *p≦0.05. […] (F) Kinetic analysis of DN differentiation in DJ-1-deficient cultures (clone 32, solid square) and heterozygous controls (open circle) as quantified by 3H-dopamine uptake assay. *p≦0.05. […] DNs were quantified by 3H-dopamine uptake assay. Data represent the means±SEM and were analyzed by ANOVA followed by Fisher's post-hoc test. *p≦0.05. […]
In Vivo Assays. […] Cell viability (as a percent of untreated control) was determined by MTT assay in triplicate (Fezoui et al. 2000). […] Reported values represent specific uptake from which non-specific uptake, determined in the presence of mazindol, was subtracted, and normalized for protein content (BCA kit, Pierce).

[2] = system: cerebellar granule cells; assay: Parkin overexpression in kainate-treated cerebellar granule cells; assay type: cell-based, mice; details: 500 μM for 24 h
Protocol: Cerebellar granule neurons from P6 mice were purified and transfected essentially as described (Scheiffele et al., Neuroligin expressed in nonneuronal cells triggers presynaptic development in contacting axons. Cell, 101:657-69, 2000). Dissociated cortical neurons from E16.5 mice were prepared and cultured as described (Scheiffele et al., Neuroligin expressed in nonneuronal cells triggers presynaptic development in contacting axons. Cell, 101:657-69, 2000). Primary midbrain cultures were prepared from E13.5 mouse embryos, as described (Hynes et al., Induction of midbrain dopaminergic neurons by Sonic hedgehog. Neuron, 15:35-44, 1995). Cells were treated for 24 h with or without kainate (250 or 500 μM as indicated; Sigma) or MPP^+ (1 or 10 μM as indicated; Sigma), stained for 20 min with 0.5 μg/ml Hoechst 33342 (Sigma), and visualized by fluorescence microscopy. For granule cell assays, at least 100 cells in two 20× fields were scored in duplicate for GFP and/or Hoechst signal. […] Cells were washed, incubated for 1 h at room temperature with appropriately-labeled secondary antibodies, and visualized by fluorescence microscopy. For midbrain culture experiments, DAT-specific immunoreactivity (pixels), and cytoplasmic parkin and cyclin E immunoreactivity (mean pixel density), were quantified in triplicate, across nine fields of view, at 20× using Image software (Scion). […]

[3] = biological target: T2, αSyn (Homo sapiens, UniProt P37840); assay: αSyn protofibril formation in vitro; assay type: biochemical; details: molar ratio 1:2 (DJ-1: αSyn), 2 h at 55° C.
Protocol: αSyn protofibril and fibril formation assays were performed essentially as described (Uversky et al.). Briefly, protofibrils were formed by incubation of 200 μM WT synuclein with 100 μM DJ-1 or control chaperone protein in PBS for 2 h at 55° C. Samples were mixed with SDS loading buffer and analyzed by SDS-PAGE and Western blotting using αSyn LB509 antibody (Zymed). Quantitation of high molecular weight αSyn was performed using NIH Image J. Integrated pixel intensity of high molecular weight synuclein for each sample was normalized to monomeric synuclein intensity. For fibril formation, αSyn and chaperone proteins (as described above) were incubated with shaking for 1 wk at 37° C. Fibril formation was assessed by Congo red (Conway et al. 2000b).

[4] = system: insulin; assay: Aggregation suppression of DTT-reduced insulin B chains; assay type: biochemical; details: insulin 26 μM, 20 mM DTT, 25° C.
Protocol: FIG. 22 illustrates that DJ-1 is a redox-dependent molecular chaperone. (A) Aggregation of CS was monitored at 43° C. after addition of either 0.8 μM CS alone (black), or along with 8.0 μM RNase A (purple), 0.5 μM DJ-1 (aqua), 2.0 μM DJ-1 (blue), 4.0 μM DJ-1 (red), or 2.0 μM Hsp27 (green). (B) Aggregation of 0.8 μM CS after 30 min at […] (unfilled bar) is inhibited by 4.0 μM WT DJ-1 (black bar) but not 4.0 μM L166P mutant DJ-1 (gray bar). Data are shown as the mean±SEM and were analyzed by ANOVA with Fisher's post-hoc test. *p<0.05. (C) Aggregation of insulin (26 μM) B chains induced by 20 mM DTT at 25° C. Insulin alone (black) or in the presence of 4.0 μM RNase A (purple), 0.5 μM DJ-1 (aqua), 2.0 μM DJ-1 (blue), 4.0 μM DJ-1 (red), or 2.0 μM Hsp27 (green). […] (gray bar). Further treatment of DTT-reduced DJ-1 with 10 mM H2O2 for 10 min at 4° C. leads to reactivation of CS suppression (hatched bar). Data are shown as the mean±SEM and were analyzed by ANOVA with Fisher's post-hoc test. *p<0.05.
CS aggregation was performed in 40 mM HEPES (pH 7.8), 20 mM potassium hydroxinde, 50 mM potassium chloride, and 10 mM ammonium sulfate, and monitored in a thermostat-controlled fluorescence spectrophotometer with excitation and emission wavelengths at 500 nm and slit widths at 2.5 nm. Insulin aggregation was performed as described (Giasson et al. 2000). […]

[5] = biological target: T2, αSyn; assay: αSyn Congo red-positive fibril formation in vitro; assay type: biochemical; details: 200 μM αSyn, proteins 100 μM, 1 wk at 37° C.
Protocol: αSyn protofibril and fibril formation assays were performed essentially as described (Uversky et al.). […] For fibril formation, αSyn and chaperone proteins (as described above) were incubated with shaking for 1 wk at 37° C. Fibril formation was assessed by Congo red (Conway et al. 2000b).

[6] = biological target: T1, citrate synthase (CS); assay: Suppression of heat-induced aggregation of citrate synthase (chaperone assay); assay type: biochemical; details: 0.8 μM CS, 43° C.
Protocol: To test the redox regulation of DJ-1, the inventors assayed chaperone activity in the CS aggregation assay in the presence or absence of the reducing agent DTT. […] (FIG. 22D). […] To further test whether redox regulation might govern DJ-1 chaperone activity, reactivation studies using reduced DJ-1 were performed. DTT-reduced DJ-1 was incubated with H2O2 (10 mM in aggregation buffer for 10 min at 4° C. followed by dialysis against aggregation buffer for 2 h), and subsequently chaperone activity was measured in the CS thermal aggregation assay. […] This was not an indirect effect of residual H2O2 on CS aggregation, as H2O2 treatment of CS increased aggregation (unpublished data).
CS aggregation was performed in 40 mM HEPES (pH 7.8), 20 mM potassium hydroxinde, 50 mM potassium chloride, and 10 mM ammonium sulfate, and monitored in a thermostat-controlled fluorescence spectrophotometer with excitation and emission wavelengths at 500 nm and slit widths at 2.5 nm. Insulin aggregation was performed as described (Giasson et al. 2000). CS, insulin, RNase A, and GST were obtained from Sigma; human Hsp27 was obtained from Stressgen.

Molecule	formation of soluble αSyn protofibrils [3]	aggregation suppression of reduced insulin [4]	also measured
NCCc1cc(O)c(O)cc1O [6-OHDA, 6-hydroxydopamine]	–	–	sensitivity of DJ-1 deficient dopamine neurons to toxin [1]: increased sensitivity
C=C(C)[C@H]1CN[C@H](C(=O)O)[C@H]1CC(=O)O [kainate]	–	–	effect of toxin on cyclin E in granule cell cultures [2]: led to the accumulation of cyclin E
Hsp27: well-described small cytoplasmic chaperone, human Hsp27, from Stressgen; positive control [reference compound]	failed to inhibit	effectively inhibited	–
glutathione S-transferase [GST]	failed to inhibit	–	formation of Congo red-positive αSyn fibrils [5]: did not
RNase A: negative control protein, from Sigma (protein, UniProt P61823 27-150, looked up) Ribonuclease pancreatic: KETAAAKFERQHMDSSTSAASSSNYCNQMMKSRNLTKDRCKPVNTFVHESLADVQAVCSQKNVACKNGQTNCYQSYSTMSITDCRETGSSKYPNCAYKTTQANKHIIVACEGNPYVPVHFDASV	–	neither DJ-1 nor the negative control protein RNase A displayed chaperone activity	suppression of heat-induced aggregation of CS (chaperone activity) [6]: failed to demonstrate chaperone activity
